Paper PMC9887155 (2023)
Ends that are not written are not given here.

Columns and labels:
[1] = biological target: T1, Gtα/Giα with a C-terminus truncated by six amino acids (European robin (Erithacus rubecula)); experiment: SPR; two-state reaction model, kd1
[2] = biological target: T1, Gtα/Giα with a C-terminus truncated by …; experiment: SPR; two-state reaction model, first step (kd1/ka1)

B1: peptide LWO2 (second cytoplasmic loop of long-wavelength-sensitive opsin of European robin) (peptide)
peptide: CGAGAWERWFVVCKPFGNIKFDGK-NH2
modifications: cysteine pairing not given here
B1 gave a koff [1] of 0.00434 s⁻¹ and a Kd [2] of 933 nM.
